Experimental findings from the supplement of paper PMC10724198 are described below.

The subject of the series is Saccharomyces cerevisiae. Briefly: protein stability index of tFT-peptide fusion (C-terminal peptide) (PSI (0-1 scale)); higher = more stable (slower turnover). The settings on record: temperature: 30 C. The method, then: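 MPS profiling in S. cerevisiae of the yeast C-terminome library: the last 12 aa of each annotated ORF are fused to the C-terminus of a sfGFP-mCherry timer, after a GGGS linker. Cells are FACS-sorted into 8 mCherry/sfGFP bins and deep-sequenced. PSI runs from 0 (unstable) to 1 (stable); wild type and das1Δ backgrounds, two technical replicates each.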

Setting [1] is: genetic background: das1 deletion.

± gives the standard deviation of the averaged measurements.

On to IFVGETIFFFLF [YDR053W C-terminal 12 aa], for which the protein stability index worked out at 0.625 ± 0.016 under setting [1] and 0.536 ± 0.018 (genetic background: wild type).

As for “IFYLRFPSYIRG [YJR151W-A C-terminal 12 aa]”, the protein stability index stood at 0.614 ± 0.017 under setting [1] and 0.615 ± 0.0023 (genetic background: wild type).

For IGRENENENEDD [POP5 C-terminal 12 aa], the protein stability index runs as follows: under setting [1], 0.688 ± 0.037; (genetic background: wild type) 0.704 ± 0.058.

For the sequence IHTPTIPKRSLT [MCX1 C-terminal 12 aa], the protein stability index is 0.7149 ± 0.0019 under setting [1] and 0.767 ± 0.052 (genetic background: wild type).

Take IIGALNLYDGLI [FRQ1 C-terminal 12 aa]: the protein stability index reads like this: under setting [1], 0.737 ± 0.017; (genetic background: wild type) 0.763 ± 0.12.

Turning to IIGIYYVLKWLR [BOS1 C-terminal 12 aa], the protein stability index by setting is: under setting [1], 0.3507 ± 0.0021; (genetic background: wild type) 0.392 ± 0.0089.

“IKLARRLRGERS [YBR010W; YNL031C C-terminal 12 aa]”: the protein stability index reads like this: under setting [1], 0.6941 ± 0.0047; (genetic background: wild type) 0.68 ± 0.012.

As to IKLIDFNETSLT [MCM22 C-terminal 12 aa], the protein stability index runs as follows: under setting [1], 0.68 ± 0.008; (genetic background: wild type) 0.675 ± 0.0072.

Turning to IKRLDANTDFNI [MFB1 C-terminal 12 aa], the protein stability index reads like this: under setting [1], 0.678 ± 0.019; (genetic background: wild type) 0.668 ± 0.024.

On to ILDDTRQALGNT [PCL8 C-terminal 12 aa], for which the protein stability index is 0.703 ± 0.034 under setting [1] and 0.737 ± 0.013 (genetic background: wild type).

As to ILKELSNLETLY [RPB4 C-terminal 12 aa], the protein stability index is, setting by setting: under setting [1], 0.7182 ± 0.007; (genetic background: wild type) 0.737 ± 0.051.

For the sequence “ILNCVGSAKTSG [YBR298C-A C-terminal 12 aa]”, the protein stability index under setting [1] amounted to 0.68417 ± 0.00062 and the protein stability index (genetic background: wild type) is 0.666 ± 0.019.

ILRNASQIVSSV [VPS1 C-terminal 12 aa] registered a protein stability index under setting [1] of 0.7029 ± 0.0038 and a protein stability index (genetic background: wild type) of 0.6942 ± 0.0029.

ILRPLELKYFGR [FCY2 C-terminal 12 aa] displayed a protein stability index under setting [1] of 0.707 ± 0.029 and a protein stability index (genetic background: wild type) of 0.675 ± 0.027.

In the case of “ILSLYFISDRTG [YBR200W-A C-terminal 12 aa]”, the protein stability index by setting is: under setting [1], 0.7249 ± 0.0034; (genetic background: wild type) 0.753 ± 0.053.

ILWKNGIYIAHI [HUR1 C-terminal 12 aa]: the protein stability index stood at 0.659 ± 0.01 under setting [1] and 0.6113 ± 0.0034 (genetic background: wild type).

On to ININDLMVNRNH [YOR389W C-terminal 12 aa], for which the protein stability index was 0.7014 ± 0.0018 under setting [1] and 0.7003 ± 0.0012 (genetic background: wild type).

Regarding INKKKSGSGCIC [YPT10 C-terminal 12 aa], the protein stability index by setting is: under setting [1], 0.696 ± 0.035; (genetic background: wild type) 0.647 ± 0.026.

On to INKRAVSNSKDV [RFT1 C-terminal 12 aa], for which the protein stability index came out at 0.692 ± 0.026 under setting [1] and 0.727 ± 0.027 (genetic background: wild type).

Turning to IPTKKSQMDYFL [PPH3 C-terminal 12 aa], the protein stability index runs as follows: under setting [1], 0.709 ± 0.029; (genetic background: wild type) 0.753 ± 0.064.

With IRLDGENNSCSC [YPT7 C-terminal 12 aa], the protein stability index was found to be 0.692 ± 0.017 under setting [1] and 0.697 ± 0.012 (genetic background: wild type).

Regarding “ISRKAGHPAPAF [YML100W-A C-terminal 12 aa]”, the protein stability index came to 0.717 ± 0.0091 under setting [1] and 0.704 ± 0.03 (genetic background: wild type).

For ITLRLWEQRQAK [MAD1 C-terminal 12 aa], the protein stability index is, setting by setting: under setting [1], 0.754 ± 0.019; (genetic background: wild type) 0.726 ± 0.0076.

IYALSIKHPKEI [CPT1 C-terminal 12 aa]: the protein stability index runs as follows: under setting [1], 0.713 ± 0.0085; (genetic background: wild type) 0.7248 ± 0.0029.

In turn, IYANRDKAKKNM [OPI3 C-terminal 12 aa] registered a protein stability index under setting [1] of 0.681 ± 0.021 and a protein stability index (genetic background: wild type) of 0.499 ± 0.03.

With “IYIYTSTLQLCV [YHR028W-A C-terminal 12 aa]”, the protein stability index under setting [1] amounted to 0.376 ± 0.024 and the protein stability index (genetic background: wild type) came to 0.362 ± 0.011.

Regarding “IYSVIQCLFLHS [YMR141W-A C-terminal 12 aa]”, the protein stability index amounted to 0.64018 ± 0.00059 under setting [1] and 0.607 ± 0.018 (genetic background: wild type).

Consider KAALDRVENALA [IML2 C-terminal 12 aa], for which the protein stability index by setting is: under setting [1], 0.699 ± 0.02; (genetic background: wild type) 0.676 ± 0.017.

For KAIEYFEEYQSW [FRE3 C-terminal 12 aa], the protein stability index under setting [1] was found to be 0.721 ± 0.021 and the protein stability index (genetic background: wild type) is 0.6952 ± 0.0065.

With KDGFVLYSYGQK [SKP2 C-terminal 12 aa], the protein stability index under setting [1] turned out to be 0.69 ± 0.021 and the protein stability index (genetic background: wild type) was 0.738 ± 0.034.

KDKKDKKKKHRD [RPA34 C-terminal 12 aa] came in with a protein stability index under setting [1] of 0.704 ± 0.013 and a protein stability index (genetic background: wild type) of 0.664 ± 0.035.

On to KDLFASIGKKKL [FYV8 C-terminal 12 aa], for which the protein stability index under setting [1] is 0.714 ± 0.011 and the protein stability index (genetic background: wild type) came out at 0.682 ± 0.026.

Consider KDWLIKTRKTSL [TVS1 C-terminal 12 aa], for which the protein stability index under setting [1] was found to be 0.707 ± 0.013 and the protein stability index (genetic background: wild type) stood at 0.693 ± 0.011.

For the sequence KEDKKKKSSNCC [YPT32 C-terminal 12 aa], the protein stability index runs as follows: under setting [1], 0.704 ± 0.0073; (genetic background: wild type) 0.732 ± 0.014.

With KEGRRSRTRTSS [YJR098C C-terminal 12 aa], the protein stability index runs as follows: under setting [1], 0.7049 ± 0.0033; (genetic background: wild type) 0.703 ± 0.0041.

In the case of KENLANNEILDN [YKL063C C-terminal 12 aa], the protein stability index was 0.683 ± 0.018 under setting [1] and 0.67 ± 0.026 (genetic background: wild type).

For the sequence KERIVLSNVRPM [TFC7 C-terminal 12 aa], the protein stability index under setting [1] is 0.6909 ± 0.004 and the protein stability index (genetic background: wild type) amounted to 0.686 ± 0.027.

KESIQQQEDDLL [SEC17 C-terminal 12 aa]: the protein stability index was found to be 0.6974 ± 0.0026 under setting [1] and 0.692 ± 0.014 (genetic background: wild type).

On to KETDKVNDENSI [MLP1 C-terminal 12 aa], for which the protein stability index reads like this: under setting [1], 0.708 ± 0.0044; (genetic background: wild type) 0.756 ± 0.059.

For KETTTRNYRGTC [GAD1 C-terminal 12 aa], the protein stability index is, setting by setting: under setting [1], 0.71 ± 0.029; (genetic background: wild type) 0.707 ± 0.032.

KFAKANIGYVMG [RPN4 C-terminal 12 aa]: the protein stability index by setting is: under setting [1], 0.4528 ± 0.0025; (genetic background: wild type) 0.495 ± 0.011.

KFDIVDQLLSTL [RSM24 C-terminal 12 aa] gave a protein stability index under setting [1] of 0.7136 ± 0.0037 and a protein stability index (genetic background: wild type) of 0.684 ± 0.014.

On to KFEKKLYNFLGF [GEP4 C-terminal 12 aa], for which the protein stability index was 0.701 ± 0.028 under setting [1] and 0.717 ± 0.017 (genetic background: wild type).

Consider KGMKRLDYRFIH [SOA1 C-terminal 12 aa], for which the protein stability index runs as follows: under setting [1], 0.688 ± 0.029; (genetic background: wild type) 0.234 ± 0.012.

In the case of KGNLPGVKKGIW [MRP2 C-terminal 12 aa], the protein stability index by setting is: under setting [1], 0.687 ± 0.012; (genetic background: wild type) 0.668 ± 0.011.

For the sequence KGRYVNSSKRRS [NOB1 C-terminal 12 aa], the protein stability index amounted to 0.6955 ± 0.00021 under setting [1] and 0.6781 ± 0.004 (genetic background: wild type).

As for KGTKRDQNDNHN [AQR1 C-terminal 12 aa], the protein stability index by setting is: under setting [1], 0.698 ± 0.01; (genetic background: wild type) 0.6782 ± 0.0022.

In the case of KHAFMGTLKKDL [RPL3 C-terminal 12 aa], the protein stability index is, setting by setting: under setting [1], 0.7 ± 0.01; (genetic background: wild type) 0.686 ± 0.03.

As to KIEHVDDETRTH [PEX13 C-terminal 12 aa], the protein stability index was 0.6991 ± 0.0032 under setting [1] and 0.6991 ± 0.0042 (genetic background: wild type).

In the case of KILGRYVVDTSK [ADH3 C-terminal 12 aa], the protein stability index under setting [1] is 0.7177 ± 0.0055 and the protein stability index (genetic background: wild type) was determined as 0.6547 ± 0.0035.
